Laboratory results from the supplement of paper PMC10567573.

B1: TRIM55 (parent)
chain: YKSFSKEQQTMDNLEKQLICPICL

Variants of: B1
Experiment: protein stability index of a GFP-peptide fusion (GPS, HEK-293T) (PSI 1-6); higher = more stable
Conditions: c terminus: a fixed tail appended
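Note: lentivirally expressed fusions sorted by FACS into six bins by GFP to DsRed ratio, PSI derived from sequencing read proportions per bin multiplied by bin number.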

Variant	protein stability index
YKSFSKEQQTMDNLEKSLICPICL [Q17S]	1.72
YKSFSKEQQTMDNLEKTLICPICL [Q17T]	1.98
YKSFSKEQQTMDNLEKILICPICL [Q17I]	1.65
YKSFSKEQQTMDNLEKHLICPICL [Q17H]	2.23
YKSFSKEQQTMDNLEKELICPICL [Q17E]	2.32
YKSFSKEQQTMDNLEKPLICPICL [Q17P]	1.68
YKSFSKEQQTMDNLEKCLICPICL [Q17C]	2.12
YKSFSKEQQTMDNLEKYLICPICL [Q17Y]	2.02
YKSFSKEQQTMDNLEKGLICPICL [Q17G]	2.16
YKSFSKEQQTMDNLEKDLICPICL [Q17D]	2.76
YKSFSKEQQTMDNLEKRLICPICL [Q17R]	2.22
YKSFSKEQQTMDNLEKKLICPICL [Q17K]	2.32
YKSFSKEQQTMDNLEKWLICPICL [Q17W]	2.31
YKSFSKEQQTMDNLEKNLICPICL [Q17N]	1.89
YKSFSKEQQTMDNLEKALICPICL [Q17A]	1.79
YKSFSKEQQTMDNLEKFLICPICL [Q17F]	2.59
YKSFSKEQQTMDNLEKLLICPICL [Q17L]	2
YKSFSKEQQTMDNLEKMLICPICL [Q17M]	1.48
YKSFSKEQQTMDNLEKVLICPICL [Q17V]	2.01
YKSFSKEQQTMDNLEKQLKCPICL [I19K]	2.55
YKSFSKEQQTMDNLEKQLRCPICL [I19R]	2.63
YKSFSKEQQTMDNLEKQLVCPICL [I19V]	2.06
YKSFSKEQQTMDNLEKQLLCPICL [I19L]	1.96
YKSFSKEQQTMDNLEKQLGCPICL [I19G]	2.8

Variant	protein stability index
YKSFSKEQQTMDNLEKQLACPICL [I19A]	1.99
YKSFSKEQQTMDNLEKQLSCPICL [I19S]	2.37
YKSFSKEQQTMDNLEKQLPCPICL [I19P]	2.29
YKSFSKEQQTMDNLEKQLYCPICL [I19Y]	2.02
YKSFSKEQQTMDNLEKQLNCPICL [I19N]	2.71
YKSFSKEQQTMDNLEKQLHCPICL [I19H]	2.25
YKSFSKEQQTMDNLEKQLWCPICL [I19W]	1.51
YKSFSKEQQTMDNLEKQLQCPICL [I19Q]	2.81
YKSFSKEQQTMDNLEKQLECPICL [I19E]	3.01
YKSFSKEQQTMDNLEKQLFCPICL [I19F]	2.09
YKSFSKEQQTMDNLEKQLTCPICL [I19T]	2.76
YKSFSKEQQTMDNLEKQLMCPICL [I19M]	1.88
YKSFSKEQQTMDNLEKQLDCPICL [I19D]	2.56
YKSFSKEQQTMDNLEYQLICPICL [K16Y]	1.67
YKSFSKEQQTMDNLETQLICPICL [K16T]	2.23
YKSFSKEQQTMDNLEWQLICPICL [K16W]	1.88
YKSFSKEQQTMDNLESQLICPICL [K16S]	1.81
YKSFSKEQQTMDNLELQLICPICL [K16L]	1.68
YKSFSKEQQTMDNLEVQLICPICL [K16V]	1.76
YKSFSKEQQTMDNLEMQLICPICL [K16M]	2.15
YKSFSKEQQTMDNLEQQLICPICL [K16Q]	1.83
YKSFSKEQQTMDNLENQLICPICL [K16N]	2.07
YKSFSKEQQTMDNLEPQLICPICL [K16P]	2.57
YKSFSKEQQTMDNLEIQLICPICL [K16I]	1.42

Variant	protein stability index
YKSFSKEQQTMDNLERQLICPICL [K16R]	2.03
YKSFSKEQQTMDNLEKQLICGICL [P21G]	2.21
YKSFSKEQQTMDNLEKQLICDICL [P21D]	1.07
YKSFSKEQQTMDNLEKQLICLICL [P21L]	1.67
YKSFSKEQQTMDNLEKQLICAICL [P21A]	1.66
YKSFSKEQQTMDNLEKQLICKICL [P21K]	2.07
YKSFSKEQQTMDNLEKQLICNICL [P21N]	1.24
YKSFSKEQQTMDNLEKQLICFICL [P21F]	1.74
YKSFSKEQQTMDNLEKQLIPPICL [C20P]	2.86
YKSFSKEQQTMDNLEKQLISPICL [C20S]	2.4
YKSFSKEQQTMDNLEKQLIDPICL [C20D]	2.51
YKSFSKEQQTMDNLEKQLILPICL [C20L]	2.29
YKSFSKEQQTMDNLEKQLIKPICL [C20K]	1.88
YKSFSKEQQTMDNLEKQLIEPICL [C20E]	3.21
YKSFSKEQQTMDNLEKQLIMPICL [C20M]	1.82
YKSFSKEQQTMDNLEKQLIWPICL [C20W]	1.85
YKSFSKEQQTMDNLEKQLIAPICL [C20A]	1.54
YKSFSKEQQTMDNLEKQLIIPICL [C20I]	1.62
YKSFSKEQQTMDNLEKQLIQPICL [C20Q]	2.05
YKSFSKEQQTMDNLEKQLINPICL [C20N]	2.42
YKSFSKEQQTMDNLEKQLIVPICL [C20V]	1.78
YKSFSKEQQTMDNLEKQLITPICL [C20T]	2.44
YKSFSKEQQTMDNLEKQLIYPICL [C20Y]	2.03
YKSFSKEQQTMDNLEKQLIGPICL [C20G]	2.52

Variant	protein stability index
YKSFSKEQQTMDNLEKQLIFPICL [C20F]	2.22
YKSFSKEQQTMDNLEKQLIHPICL [C20H]	2.27
YKSFSKEQQTMDNLEKQLIRPICL [C20R]	2.11
YKSFSKEQQTMDNLEKQFICPICL [L18F]	2.55
YKSFSKEQQTMDNLEKQYICPICL [L18Y]	2.18
YKSFSKEQQTMDNLEKQNICPICL [L18N]	2.96
YKSFSKEQQTMDNLEKQSICPICL [L18S]	2.49
YKSFSKEQQTMDNLEKQGICPICL [L18G]	2.84
YKSFSKEQQTMDNLEKQHICPICL [L18H]	2.75
YKSFSKEQQTMDNLEKQQICPICL [L18Q]	2.08
YKSFSKEQQTMDNLEKQRICPICL [L18R]	3.17
YKSFSKEQQTMDNLEKQVICPICL [L18V]	3.42
YKSFSKEQQTMDNLEKQTICPICL [L18T]	2.54
YKSFSKEQQTMDNLEKQWICPICL [L18W]	1.95
YKSFSKEQQTMDNLEKQKICPICL [L18K]	2.48
YKSFSKEQQTMDNLEKQDICPICL [L18D]	2.98
YKSFSKEQQTMDNLEKQAICPICL [L18A]	2.81
YKSFSKEQQTMDNLEKQPICPICL [L18P]	2.87
YKSFSKEQQTMDNLEKQIICPICL [L18I]	2.31
YKSFSKEQQTMDNLEKQCICPICL [L18C]	3.72
YKSFSKEQQTMDNLEKQMICPICL [L18M]	2.62
YKSFSKEQQTMDNLEKQEICPICL [L18E]	3.19
